How the values were obtained:
porcine NTCP = experiment: Guide RNA efficiency to cause Indel mutations in porcine kidney fibroblasts (CRISPR/Cas9); type: cell-based; conditions: modified PX330 plasmid
Experimental: Here, porcine kidney fibroblasts were transfected with a modified PX330 plasmid, carrying an additional Puromycin selection cassette, porcine NTCP guide RNA sequence and Cas9 nuclease. Several guide RNA sequences (18 bp long) were tested for their efficiency to cause Insertion/Deletion (Indel) mutations.

HBV [1] = experiment: HBV infection of HepG2 cells transfected with NTCP variants, HBeAg ELISA of supernatant; type: cell-based, Hepatitis B virus; conditions: HepG2 transfected with NTCP plasmid, HBV MOI 300, days 4, 7 and 10 after infection, FIG. 5A
Experimental: However, neither of these approaches was successful with porcine NTCP. […] Therefore, these human cells are a valuable tool to analyze the effect of different NTCP muteins in a human cell culture system.
HepG2 cells were transfected with plasmids coding for different variants of NTCP: human (hNTCP), porcine (pNTCP) or chimeric (pNTCP w/ hAA). After transfection, the cells were incubated for three days with 2% DMSO before they were infected with HBV at an MOI of 300. The supernatant was collected at days 4, 7 and 10 after infection and analyzed for the viral protein HBeAg by ELISA.

HBV [2] = experiment: qPCR of HBV rcDNA and cccDNA in PPH; type: cell-based, Hepatitis B virus; conditions: day 5 after infection, FIG. 3
Experimental: (§1) Primary porcine hepatocytes (PPH) were isolated from a pig liver less than 3 h after slaughter and kept in culture: For infection experiments, the cells were seeded in a 24 well plate and for Southern Blot experiments into 6 well plates. The next day, the cells were transduced with adenovirus at an MOI of 1 or 5 (see FIG. 2) and cultured in DMEM-F12 comprising […]. The sequences of the adenoviruses are shown in SEQ ID NO: 6 for Ad-hNTCP, SEQ ID NO: 7 for Ad-phNTCP and SEQ ID NO: 8 for Ad-hNTCP-tdTomato.
(§2) On day 4 after isolation (day 3 after transduction), the cells were infected with HBV (genotype D, serotype ayw) in DMEM-F12 with 4% PEG6000 with an MOI of 1000.
On day 5 after infection, the 24 well plates were lysed, frozen and then DNA was isolated and analyzed for rcDNA or cccDNA using qPCR. In detail, total cellular DNA was extracted using NucleoSpin Tissue kit (Macherey Nagel). For selective cccDNA PCR, isolated DNA was treated with 5 units of T5 exonuclease (NEB, Frankfurt, Germany) for 30 min in 10 μl reaction volume (Xia 2017b) followed by heat-inactivation at 95° C. for 5 min and 4-fold dilution with distilled water. Two different primer sets were used to detect total intracellular HBV DNA (HBV1844F: 5′-[…]-3′ (SEQ ID NO: 9) and HBV1745R: 5′-GGAGGGATACATAG (SEQ ID NO: 10).

HBV [3] = experiment: Southern Blot analysis of HBV cccDNA in PPH; type: cell-based, Hepatitis B virus; conditions: day 4 after infection with HBV, FIG. 4
Experimental: as §1, §2
On days 3 and 5 after HBV infection, samples were taken for HBeAg measurements. Medium was changed on day 3 after HBV infection. The 6 well plate for the Southern Blot analysis was frozen at −80° C. on day 4 after HBV infection and used for a Hirt extraction with subsequent Southern Blot. To detect protein-free forms of HBV DNA including cccDNA, a modified Hirt extraction procedure was used (Yan et al. 2012). Intracellular capsid-associated DNA was prepared as described (Ko et al. 2014). Viral DNA forms were separated on an agarose gel, transferred onto a nylon membrane, and hybridized with a digoxigenin-labeled HBV-specific probe (Ko et al. 2014). DNA signal was detected by DIG Luminescent Detection Kit (Roche).

Molecule | Indel frequency (porcine NTCP) | susceptibility of HepG2 cells to HBV (HBeAg in supernatant) (HBV [1]) | HBV cccDNA in PPH (HBV [2]) | HBV rcDNA in PPH (HBV [2]) | HBV cccDNA in Southern Blot (HBV [3])
NTCP G3: guide RNA sequence GAAGGACAAGGTGCCCTA (SEQ ID NO: 22) (expressed or natural sequence) | highest |  |  |  | 
hNTCP: human NTCP receptor (SEQ ID NO: 4) (protein, listed as Homo sapiens) MEAHNASAPFNFTLPPNFGKRPTDLALSVILVFMLFFIMLSLGCTMEFSKIKAHLWKPKGLAIALVAQYGIMPLTAFVLGKVFRLKNIEALAILVCGCSPGGNLSNVFSLAMKGDMNLSIVMTTCSTFCALGMMPLLLYIYSRGIYDGDLKDKVPYKGIVISLVLVLIPCTIGIVLKSKRPQYMRYVIKGGMIIILLCSVAVTVLSAINVGKSIMFAMTPLLIATSSLMPFIGFLLGYVLSALFCLNGRCRRTVSMETGCQNVQLCSTILNVAFPPEVIGPLFFFPLLYMIFQLGEGLLLIAIFWCYEKFKTPKDKTKMIYTAATTEETIPGALGNGTYKGEDCSP |  | susceptible to HBV | drastic increase | drastic increase | show HBV cccDNA

Reference: patent publication US20210269499A1, “HEPATITIS B AND/OR HEPATITIS D-PERMISSIVE CELLS AND ANIMALS” (TECHNISCHE UNIVERSITAET MUENCHEN, priority 2018, published 2021)
